Experimental data taken from patent US20090202549A1.

Biological target: mouse IL-12 (p40/p35 heterodimer) (mouse) (UniProt P43432)
Experiment: cell-based or functional assay

mouse IL-12 (p40/p35 heterodimer) (mouse), sequence (P43432 23-335, chain 1 of 2): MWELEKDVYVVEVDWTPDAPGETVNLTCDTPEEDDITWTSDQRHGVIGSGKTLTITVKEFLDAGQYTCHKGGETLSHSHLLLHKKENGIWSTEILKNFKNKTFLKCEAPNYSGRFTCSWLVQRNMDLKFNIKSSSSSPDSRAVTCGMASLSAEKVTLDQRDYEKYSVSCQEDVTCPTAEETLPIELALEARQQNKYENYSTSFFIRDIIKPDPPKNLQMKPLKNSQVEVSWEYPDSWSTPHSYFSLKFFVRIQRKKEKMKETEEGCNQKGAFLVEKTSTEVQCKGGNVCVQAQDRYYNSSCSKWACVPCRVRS
mouse IL-12 (p40/p35 heterodimer) (mouse), sequence (P43431 23-215, chain 2 of 2, further chain): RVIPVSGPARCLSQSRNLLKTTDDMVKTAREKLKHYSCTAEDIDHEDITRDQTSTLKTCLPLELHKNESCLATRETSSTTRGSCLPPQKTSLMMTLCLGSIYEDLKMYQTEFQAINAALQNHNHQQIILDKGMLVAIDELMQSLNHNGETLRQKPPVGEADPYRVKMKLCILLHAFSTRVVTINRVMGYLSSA

- in vitro neutralization of IL-12 (times (against the anti-p35 mAb)): 5
Substance: C17.8 (rat anti-mouse IL-12/IL-23p40, IgG2a) (antibody)
